Article PMC9352680, “A comprehensive thermodynamic model for RNA binding by the Saccharomyces cerevisiae Pumilio protein PUF4”
Changes are numbered by the printed parent chain. Names may count otherwise.

T1: PUF4 RNA-binding domain (Saccharomyces cerevisiae, UniProt P25339 537-888)
T1 sequence: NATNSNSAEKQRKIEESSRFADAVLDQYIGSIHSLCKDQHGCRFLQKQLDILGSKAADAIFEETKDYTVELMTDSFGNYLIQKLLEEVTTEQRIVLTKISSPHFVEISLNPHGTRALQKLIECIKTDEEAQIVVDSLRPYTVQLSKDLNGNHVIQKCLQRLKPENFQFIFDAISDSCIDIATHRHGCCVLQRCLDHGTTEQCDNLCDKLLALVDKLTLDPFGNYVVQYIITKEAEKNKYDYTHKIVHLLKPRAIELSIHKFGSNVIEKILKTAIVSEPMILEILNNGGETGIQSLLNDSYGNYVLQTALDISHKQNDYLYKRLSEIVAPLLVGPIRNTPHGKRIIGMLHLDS

B1: Ie_S2_P4E.1_K4.1_C4.1_H4.1_A4.1_F4.1_[+9CC]_T4.1 (ssRNA)
RNA: UUUGAUUAAUAUGAUAUCGUUCUUUCUUGUAUAUUACCUUCUUUCUCGAUAUCAUAUUAAUCUUU
B2: Ie_S2_P5E.1_K5.1_C5.1_H5.1_[+2T]_A5.1_F5.1_T5.1 (ssRNA)
RNA: B1 RNA with A31U, U32A, A33U, U35A, A36U, C37U, C38A
B3: Ie_S2_P4E.1_K4.1_C4.1_H4.1_A4.1_F4.1_[+9TC]_T4.1 (ssRNA)
RNA: B1 RNA with C37U
B4: Ie_S2_P4E.1_K4.1_C4.1_H4.1_A4.1_F4.1_[+8CCTC]_T4.1 (ssRNA)
RNA: UUUGAUUAAUAUGAUAUCGUUCUUUCUUGUAUAUUCCUCAUUCUUUCUCGAUAUCAUAUUAAUCUUU
B5: Ie_S2_P4E.1_K4.1_C4.1_H4.1_A4.1_F4.1_[+8CCCT]_T4.1 (ssRNA)
RNA: B4 RNA with U38C, C39U
B6: Ie_S2_P4E.1_K4.1_C4.1_H4.1_A4.1_F4.1_[+9TCTC]_T4.1 (ssRNA)
RNA: B4 RNA with C36A, C37U, U38C, C39U, A40C
B7: Ie_S2_P5E.1_K5.1_C5.1_H5.1_[+1TTT]_A5.1_F5.1_T5.1 (ssRNA)
RNA: B4 RNA with G29U, A31U, U32G, A33U, U34A, C36U, C37A, C39U
B8: Ie_S2_P5E.1_K5.1_C5.1_H5.1_[+2TCC]_A5.1_F5.1_T5.1 (ssRNA)
RNA: B4 RNA with A31C, U32C, A33U, U34A, C36U, C37A, C39U
B9: Ie_S2_P5E.1_K5.1_C5.1_H5.1_[+2TCT]_A5.1_F5.1_T5.1 (ssRNA)
RNA: B4 RNA with A31C, A33U, U34A, C36U, C37A, C39U
B10: Ie_S2_P5E.1_K5.1_C5.1_H5.1_[+1TTC]_A5.1_F5.1_T5.1 (ssRNA)
RNA: B4 RNA with G29U, A31C, U32G, A33U, U34A, C36U, C37A, C39U
B11: Ie_S2_P5E.1_K5.1_C5.1_H5.1_[+2TTC]_A5.1_F5.1_T5.1 (ssRNA)
RNA: B4 RNA with A31U, U32C, A33U, U34A, C36U, C37A, C39U
B12: Ie_S2_P5E.1_K5.1_C5.1_H5.1_[+1CTC]_A5.1_F5.1_T5.1 (ssRNA)
RNA: B4 RNA with G29C, A31C, U32G, A33U, U34A, C36U, C37A, C39U
B13: Ie_S2_P5E.1_K5.1_C5.1_H5.1_[+3TTT]_A5.1_F5.1_T5.1 (ssRNA)
RNA: B4 RNA with A31U, A33U, U34A, C36U, C37A, C39U
B14: Ie_S2_P5E.1_K5.1_C5.1_H5.1_[+2CTT]_A5.1_F5.1_T5.1 (ssRNA)
RNA: B4 RNA with U30C, A31U, A33U, U34A, C36U, C37A, C39U
B15: Ie_S2_P5E.1_K5.1_C5.1_H5.1_[+1CTT]_A5.1_F5.1_T5.1 (ssRNA)
RNA: B4 RNA with G29C, A31U, U32G, A33U, U34A, C36U, C37A, C39U
B16: Ie_S2_P5E.1_K5.1_C5.1_H5.1_[+2CTC]_A5.1_F5.1_T5.1 (ssRNA)
RNA: B4 RNA with U30C, A31U, U32C, A33U, U34A, C36U, C37A, C39U
B17: Ia_S2_P3E.1_K3.1_C3.1_H3.1_[A4C]_A3.1_F3.1_T3.1 (ssRNA)
RNA: UUUGAUUAAUAUGAUAUCGUUCUUUCUUGUCUAUAUUCUUUCUCGAUAUCAUAUUAAUCUUU
B18: Ib_S2_P3E.1_K3.1_C3.1_H3.1_[T1A]_[G2A]_A3.1_F3.1_T3.1 (ssRNA)
RNA: B17 RNA with U28A, G29A, C31A
B19: Ib_S2_P3E.1_K3.1_C3.1_H3.1_[T1C]_[G2C]_A3.1_F3.1_T3.1 (ssRNA)
RNA: B17 RNA with U28C, G29C, C31A
B20: Ib_S2_P3E.1_K3.1_C3.1_H3.1_[T1G]_[G2T]_A3.1_F3.1_T3.1 (ssRNA)
RNA: B17 RNA with U28G, G29U, C31A
B21: Ib_S2_P3E.1_K3.1_C3.1_H3.1_[T1G]_[G2C]_A3.1_F3.1_T3.1 (ssRNA)
RNA: B17 RNA with U28G, G29C, C31A
B22: Ie_S2_P5E.1_K5.1_C5.1_H5.1_[+1CTCTC]_A5.1_F5.1_T5.1 (ssRNA)
RNA: UUUGAUUAAUAUGAUAUCGUUCUUUCUUCUCUCGUAUUAUUAUUCUUUCUCGAUAUCAUAUUAAUCUUU
B23: Ie_S2_P5E.1_K5.1_C5.1_H5.1_[+1CCTCT]_A5.1_F5.1_T5.1 (ssRNA)
RNA: B22 RNA with U30C, C31U, U32C, C33U
B24: Ie_S2_P5E.1_K5.1_C5.1_H5.1_[+1CCCTT]_A5.1_F5.1_T5.1 (ssRNA)
RNA: B22 RNA with U30C, C33U
B25: Ie_S2_P5E.1_K5.1_C5.1_H5.1_[+1CCC]_A5.1_F5.1_T5.1 (ssRNA)
RNA: UUUGAUUAAUAUGAUAUCGUUCUUUCUUCCCGUAUUAUUAUUCUUUCUCGAUAUCAUAUUAAUCUUU
B26: Ie_S2_P5E.1_K5.1_C5.1_H5.1_[+1TCT]_A5.1_F5.1_T5.1 (ssRNA)
RNA: B25 RNA with C29U, C31U
B27: Ie_S2_P5E.1_K5.1_C5.1_H5.1_[+1TCC]_A5.1_F5.1_T5.1 (ssRNA)
RNA: B25 RNA with C29U
B28: Ie_S2_P4E.1_K4.1_C4.1_H4.1_A4.1_F4.1_[+8TCTCT]_T4.1 (ssRNA)
RNA: UUUGAUUAAUAUGAUAUCGUUCUUUCUUGUAUAUUUCUCUAUUCUUUCUCGAUAUCAUAUUAAUCUUU
B29: Ie_S2_P4E.1_K4.1_C4.1_H4.1_A4.1_F4.1_[+9CCTCT]_T4.1 (ssRNA)
RNA: B28 RNA with U36A, U38C, C39U, U40C, A41U
B30: Ie_S2_P4E.1_K4.1_C4.1_H4.1_A4.1_F4.1_[+9TTCCT]_T4.1 (ssRNA)
RNA: B28 RNA with U36A, C37U, U40C, A41U
B31: Ie_S2_P4E.1_K4.1_C4.1_H4.1_A4.1_F4.1_[+9CTCTC]_T4.1 (ssRNA)
RNA: B28 RNA with U36A, A41C
B32: Ie_S2_P4E.1_K4.1_C4.1_H4.1_A4.1_F4.1_[+8CCTCT]_T4.1 (ssRNA)
RNA: B28 RNA with U36C
B33: Ie_S2_P4E.1_K4.1_C4.1_H4.1_A4.1_F4.1_[+9CCCTT]_T4.1 (ssRNA)
RNA: B28 RNA with U36A, U38C, A41U
B34: Ie_S2_P5E.1_K5.1_C5.1_H5.1_[+1CTCT]_A5.1_F5.1_T5.1 (ssRNA)
RNA: B28 RNA with G29C, A31C, A33G, U35A, C37U, U38A, C39U
B35: Ie_S2_P4E.1_K4.1_C4.1_H4.1_A4.1_F4.1_[+9TCTCT]_T4.1 (ssRNA)
RNA: B28 RNA with U36A, C37U, U38C, C39U, U40C, A41U
B36: Ie_S2_P4E.1_K4.1_C4.1_H4.1_A4.1_F4.1_[+8TTCCT]_T4.1 (ssRNA)
RNA: B28 RNA with C37U, U38C
B37: Ie_S2_P5E.1_K5.1_C5.1_H5.1_[+1CCCT]_A5.1_F5.1_T5.1 (ssRNA)
RNA: B28 RNA with G29C, U30C, A31C, A33G, U35A, C37U, U38A, C39U
B38: Ie_S2_P4E.1_K4.1_C4.1_H4.1_A4.1_F4.1_[+9C]_T4.1 (ssRNA)
RNA: UUUGAUUAAUAUGAUAUCGUUCUUUCUUGUAUAUUACUUCUUUCUCGAUAUCAUAUUAAUCUUU
B39: Ie_S2_P4E.1_K4.1_C4.1_H4.1_A4.1_F4.1_[+9T]_T4.1 (ssRNA)
RNA: B38 RNA with C37U
B40: Ie_S2_P4E.1_K4.1_C4.1_H4.1_A4.1_F4.1_[+8TCC]_T4.1 (ssRNA)
RNA: UUUGAUUAAUAUGAUAUCGUUCUUUCUUGUAUAUUUCCAUUCUUUCUCGAUAUCAUAUUAAUCUUU
B41: Ie_S2_P5E.1_K5.1_C5.1_H5.1_[+2CC]_A5.1_F5.1_T5.1 (ssRNA)
RNA: B40 RNA with U30C, A31C, U36A, C37U, C38U
B42: Ie_S2_P5E.1_K5.1_C5.1_H5.1_[+2CT]_A5.1_F5.1_T5.1 (ssRNA)
RNA: B40 RNA with U30C, A31U, U36A, C37U, C38U
B43: Ie_S2_P4E.1_K4.1_C4.1_H4.1_A4.1_F4.1_[+9TTT]_T4.1 (ssRNA)
RNA: B40 RNA with U36A, C37U, C38U, A39U
B44: Ie_S2_P4E.1_K4.1_C4.1_H4.1_A4.1_F4.1_[+9TTC]_T4.1 (ssRNA)
RNA: B40 RNA with U36A, C37U, C38U, A39C
B45: Ie_S2_P5E.1_K5.1_C5.1_H5.1_[+1CC]_A5.1_F5.1_T5.1 (ssRNA)
RNA: B40 RNA with G29C, U30C, A31G, U36A, C37U, C38U
B46: Ie_S2_P4E.1_K4.1_C4.1_H4.1_A4.1_F4.1_[+9CCC]_T4.1 (ssRNA)
RNA: B40 RNA with U36A, A39C
B47: Ie_S2_P5E.1_K5.1_C5.1_H5.1_[+2TT]_A5.1_F5.1_T5.1 (ssRNA)
RNA: B40 RNA with A31U, U36A, C37U, C38U
B48: Ie_S2_P5E.1_K5.1_C5.1_H5.1_[+1TCTC]_A5.1_F5.1_T5.1 (ssRNA)
RNA: UUUGAUUAAUAUGAUAUCGUUCUUUCUUUCUCGUAUUAUUAUUCUUUCUCGAUAUCAUAUUAAUCUUU

Target: T1, PUF4 RNA-binding domain
Assay: Mg; RNA-MaP; 20 mM Na-HEPES pH 7.4, 30 mM KOAc, 0.75 mM MgCl2, 0.1% Tween-20, 5% glycerol, 0.1 mg/mL BSA, 2 mM DTT; 25 C; 0.0125-409.6 nM protein
Settings: tags: N-His6-TEV cleaved; C-SNAP kept, Cy3B-labelled; label: tethered on chip by stalled RNA polymerase

Row | Binder | Kd
1 | B1 | 0.543 nM
2 | B2 | 26 nM
3 | B3 | 0.411 nM
4 | B4 | 4.56 nM
5 | B5 | 3.71 nM
6 | B6 | 0.324 nM
7 | B7 | 1.6 nM
8 | B8 | 22.2 nM
9 | B9 | 11.1 nM
10 | B10 | 374 nM
11 | B11 | 6.91 nM
12 | B12 | 355 nM
13 | B13 | 11.3 nM
14 | B14 | 368 nM
15 | B15 | 1.16 nM
16 | B16 | 499 nM
17 | B17 | 184 nM
18 | B18 | 889 nM
19 | B19 | 495 nM
20 | B20 | 15.6 nM
21 | B21 | 798 nM
22 | B22 | 204 nM
23 | B23 | 1.23 nM
24 | B24 | 1.2 nM

Row | Binder | Kd
25 | B25 | 178 nM
26 | B26 | 1.14 nM
27 | B27 | 198 nM
28 | B28 | 3.78 nM
29 | B29 | 0.733 nM
30 | B30 | 0.282 nM
31 | B31 | 0.532 nM
32 | B32 | 4.43 nM
33 | B33 | 0.523 nM
34 | B34 | 1.25 nM
35 | B35 | 0.382 nM
36 | B36 | 3.81 nM
37 | B37 | 1.15 nM
38 | B38 | 1.33 nM
39 | B39 | 0.265 nM
40 | B40 | 3.54 nM
41 | B41 | 679 nM
42 | B42 | 725 nM
43 | B43 | 0.208 nM
44 | B44 | 0.446 nM
45 | B45 | 565 nM
46 | B46 | 0.512 nM
47 | B47 | 6.21 nM
48 | B48 | 245 nM
